Measurements as given in US20210223235A1.

Biological target: QTARK^MeSTGC (SEQ ID NO: 4), methylated H3K9 peptide ligand immobilized on the monolayer
Test: cell-based or functional assay

With “Cbx1 fusion protein (Cbx1 chromodomain fused to KDAC8 through a short linker) (from UniProt P83916 20-73; Q9BY41 1-377)” as the substance, how does the rate acceleration for the deacetylation reaction (SAMDI mass spectrometry) read?
Its rate acceleration for the deacetylation reaction (SAMDI mass spectrometry) is 20 fold.
